B1: PACT-Ext-D3 (PACT residues 208-313, dsRBD 3 with the conserved N-terminal extension), wild type [human] / itself (parent)
chain: GHSLGCTWHSLRNSPGEKINLLKRSLLSIPNTDYIQLLSEIAKEQGFNITYLDIDELSANGQYQCLAELSTSPITVCHGSGISCGNAQSDAAHNALQYLKIIAERK
B2: PACT-D3 (PACT residues 239-313, core dsRBD 3), wild type [human] / itself (parent)
chain: TDYIQLLSEIAKEQGFNITYLDIDELSANGQYQCLAELSTSPITVCHGSGISCGNAQSDAAHNALQYLKIIAERK
B3: Loqs-D3 (Loquacious residues 392-463, dsRBD 3), wild type [Drosophila] / itself (parent)
chain: IDYIKLLGEIATENQFEVTYVDIEEKTFSGQFQCLVQLSTLPVGVCHGSGPTAADAQRHAAQNALEYLKIMT

Variants of: B1
Assay: SEC-MALLS
Details: with itself

Variant | screen value
chain 1 L66R | 12.3 kDa

Variants of: B2
Assay: SEC-MALLS
Details: with itself

Variant | screen value
chain 1 L35R | 8.8 kDa

Variants of: B3
Assay: SEC-MALLS
Details: with itself

Variant | screen value
chain 1 L35R | 8 kDa

From paper PMC5716075, “Conserved asymmetry underpins homodimerization of Dicer-associated double-stranded RNA-binding proteins” (Nucleic Acids Research, 2017)
